Laboratory results as given in patent publication US20140322220A1.
One block for each binder: values may come before it.

Tests used:
[1] = target: hFGFR2β-Fc (IIIc) (human) (UniProt P21802); assay: ELISA, 1 ug/ml Fab on coated antigen; grade of signal to background (+ 2-3, ++ 3-5, +++ >5)
[2] = target: mFGFR2β-Fc (IIIc) (murine) (UniProt P21803); assay: as above
[3] = target: human FGFR2 on human cancer cell lines (human) (UniProt P21802); assay: FACS, 5 ug/ml, KATOIII cells
[4] = target: human FGFR2 on human cancer cell lines (human) (UniProt P21802); assay: FACS titration 0.1-100 nM, MFM223 cells
[5] = target: human FGFR2 on human cancer cell lines (human) (UniProt P21802); assay: FACS titration 0.1-100 nM, SNU16 cells
[6] = target: human FGFR2 on human cancer cell lines (human) (UniProt P21802); assay: FACS, 5 ug/ml, SNU16 cells
[7] = target: murine FGFR2 on murine cancer cell lines (murine) (UniProt P21803); assay: FACS titration 0.1-100 nM, 4T1 cells
[8] = target: human FGFR2 on human cancer cell lines (human) (UniProt P21802); assay: FACS, 5 ug/ml, HEC1b cells
[9] = target: murine FGFR2 on murine cancer cell lines (murine) (UniProt P21803); assay: FACS, 5 ug/ml, 4T1 cells
[10] = target: human FGFR2 on human cancer cell lines (human) (UniProt P21802); assay: FACS, 5 ug/ml, NCI-N87 cells
[11] = target: human FGFR2 on human cancer cell lines (human) (UniProt P21802); assay: FACS, 5 ug/ml, MFE280 cells

ELISA signal to background ratio [1]: > 5
ELISA signal to background ratio [2]: > 5
B1: M048-D01 (soluble Fab) (Fab, V domains shown)
VH: EVQLLESGGGLVQPGGSLRLSCAASGFTFSSYAMSWVRQAPGKGLEWVSAISGSGTSTYYADSVKGRFTISRDNSKNTLYLQMNSLRAEDTAVYYCARVRYNWNHGDWFDPWGQGTLVTVSS
VL: QSVLTQPPSASGTPGQRVTISCSGSSSNIGNNYVSWYQQLPGTAPKLLIYENYNRPAGVPDRFSGSKSGTSASLAISGLRSEDEADYYCSSWDDSLNYWVFGGGTKLTVL

Geo Mean minus Geo Mean of secondary antibody alone (FACS) [3]: > 10000 geomean
EC50 [4]: 16.9 nM
EC50 [5]: 89.5 nM
Geo Mean minus Geo Mean of secondary antibody alone (FACS) [6]: 100 to 1000 geomean
EC50 [7]: 20.8 nM
Geo Mean minus Geo Mean of secondary antibody alone (FACS) [8]: 100 to 1000 geomean
Geo Mean minus Geo Mean of secondary antibody alone (FACS) [9]: 100 to 1000 geomean
Geo Mean minus Geo Mean of secondary antibody alone (FACS) [10]: 10 to 100 geomean
Geo Mean minus Geo Mean of secondary antibody alone (FACS) [11]: 10 to 100 geomean
B2: M021-H02-hIgG1 (antibody, V domains shown)
VH: EVQLLESGGGLVQPGGSLRLSCAASGFTFSNYGIHWVRQAPGKGLEWVAVISYDGSNKYYADSVKGRFTISRDNSKNTLYLQMNSLRAEDTAMYYCARDSSSAEDYWGQGTLVTVSS
VL: QSVLTQPPSASGTPGQRVTISCSGSSSNTGSNTVNWYQQLPGTAPKLLIYRNNQRPSGVPDRFSGSKSGTSASLAISGLRSEDEADYYCETWDSNTRGVVFGGGTKLTVL

ELISA signal to background ratio [1]: > 5
ELISA signal to background ratio [2]: > 5
B3: M021-H02 (soluble Fab) (Fab, V domains shown)
VH: B2 VH
VL: B2 VL
